Ends that are not written are not given here.
Biological target: T1, AbPIF-1(15)
T1 construct: also called AbPIP-1(15); PIF-1 antibody
Assay: competition ELISA, pAb coated at 4.5 ug/ml, unlabelled against biotinylated peptide

B1: sPIF-1(15) (peptide)
peptide: MVRIKPGSANKPSDD
modifications: not fully specified; also: flow cytometry form: FITC on N-terminus via β-alanine spacer
notes: Synthetic 15-residue peptide; In flow cytometry it carried FITC on the N-terminus through a b-alanine spacer; also called synthetic PIF-1; FITC sPIF-1(15)
- IC50: 0.5 to 0.7 nM
